This is an account of results in article PMC3810306.

pKd: −log10 of the molar value.

In the assay the target is human CD47 IgSF domain (human). As to the kind of experiment: SPR. In general terms: Surface plasmon resonance follows binding to a sensor surface in real time, without labels.

For “high-affinity SIRPα variant CV1 (consensus variant 1) monomer (designed binder)”, the pKd is 10.95.
“wild-type human SIRPα allele 1 monomer (V-set Ig domain, domain 1) (domain or fragment)”: the negative-log Kd (pKd) was 6.30 to 6.52 and the dissociation half-life (t1/2) came out at 1.8 s.

Usually pKd stands for −log10 of the Kd, conventionally taken in molar units. A higher pKd goes with a low Kd.
